The record followed here is publication doi:10.1101/2021.10.27.466080, “The structure of a native orthobunyavirus ribonucleoprotein reveals a key role for viral RNA in maintaining its helical architecture” (bioRxiv, 2021).

The series deals with the molecule itself. In words: cryo-EM structure; native BUNV RNPs purified from virions, TNE with 25 mM NaCl; cryo-ET sub-tomogram average (20 Å) used as reference for a single-particle average with helical symmetry at 13 Å; 'split' NP from PDB 3ZLA fitted flexibly by molecular dynamics (MDFF).

B1: Bunyamwera virus (BUNV) nucleocapsid protein (NP) (natural protein)
chain: MIELEFHDVAANTSSTFDPEVAYANFKRVHTTGLSYDHIRIFYIKGREIKTSLAKRSEWEVTLNLGGWKITVYNTNFPGNRNNPVPDDGLTLHRLSGFLARYLLEKMLKVSEPEKLIIKSKIINPLAEKNGITWNDGEEVYLSFFPGSEMFLGTFRFYPLAIGIYKVQRKEMEPKYLEKTMRQRYMGLEAATWTVSKLTEVQSALTVVSSLGWKKTNVSAAARDFLAKFGINM
notes: Nucleocapsid protein (NP) of Bunyamwera virus, as it stands in native ribonucleoproteins (RNPs) with the genomic RNA; NP stands in the RNP as a helical polymer wrapped around viral genomic RNA (S, M, L segments); about 3.7 NP per helical turn; The number of copies depends on the segment; also called BUNV NP; nucleoprotein; source: native RNPs purified from BUNV virions propagated in BHK-21 cells …
B1: the binding result was “binds”.
